Measurements as given in paper PMC6879610 (Nature Communications, 2019).
Positions count from the first letter of the chain named.

Experiments:
Settings in all cases: both partners purified
ovalbumin = ovalbumin (Gallus gallus (species assumed), UniProt P01012); assay: ELISA; 250 ng antigen per well coated overnight at 4 °C in PBS; serial dilutions of antibody 1 h at 37 °C; detected with anti-human IgG Fc-HRP
MPER peptide PDT-081 [1] = target: T1, MPER peptide PDT-081 (HIV-1, strain  (synthetic …)); assay: BLI; Octet RED96; biotinylated peptide PDT-081 (7.5 μg/ml) on streptavidin biosensors; serial dilution of Fab, 5 min association, 5 min dissociation; PBS/0.002% Tween 20/0.01% BSA; KD as koff/kon
T1 construct: also called full-length MPER
T1 sequence (P05877 655-684): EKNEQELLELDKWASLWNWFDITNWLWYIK

MPER peptide PDT-081 [2] = target: T1, MPER peptide PDT-081; assay: ELISA; 250 ng antigen per well coated overnight at 4 °C in PBS; serial dilutions of antibody 1 h at 37 °C; detected with anti-human IgG Fc-HRP
MPER peptide PDT-081 [3] = target: T2, MPER peptide PDT-081 (HIV-1, strain  (synthetic …)); assay: BLI; Octet RED96; biotinylated MPER peptide PDT-081 (7.5 ug/ml) captured on streptavidin biosensors; serial dilution of Fab, 5 min association, 5 min dissociation; PBS/0.002% Tween 20/0.01% bovine serum albumin; KD = koff/kon from five sensorgrams of the dilution series
T2 construct: also called PDT081pept
T2 sequence (P05877 655-684): as above

MPER peptide PDT-081 [4] = target: T2, MPER peptide PDT-081; assay: as above; remark: listed apart in the source
MPER peptide PDT-081 [5] = target: T2, MPER peptide PDT-081; assay: as above; remark: listed apart in the source
MPER peptide PDT-081 [6] = target: T2, MPER peptide PDT-081; assay: as above; remark: listed apart in the source
MPER peptide PDT-081 [7] = target: T2, MPER peptide PDT-081; assay: as above; remark: listed apart in the source
MPER peptide PDT-081 [8] = target: T2, MPER peptide PDT-081; assay: as above; remark: listed apart in the source

B1: 4E10 (antibody, V domains shown)
VH: QVQLVQSGAEVKRPGSSVTVSCKASGGSFSTYALSWVRQAPGRGLEWMGGVIPLLTITNYAPRFQGRITITADRSTSTAYLELNSLRPEDTAVYYCAREGTTGWGWLGKPIGAFAHWGQGTLVTVSS
VL: EIVLTQSPGTQSLSPGERATLSCRASQSVGNNKLAWYQQRPGQAPRLLIYGASSRPSGVADRFSGSGSGTDFTLTISRLEPEDFAVYYCQQYGQSLSTFGQGTKVEVK
notes: also called BnAb 4E10; mature 4E10
**Q.** Does B1 bind (ovalbumin)?
**A.** Result: binds

B2: 4E10 L100cF (whole antibody) (antibody, V domains shown)
VH: B1 VH with L107F
VL: B1 VL
**Q.** Does B2 bind (ovalbumin)?
**A.** Result: binds

B3: PGZL1 gVmDmJ Fab (Fab, V domains shown)
VH: QVQLVQSGAEVKKPGSSVKVSCKASGGTFSSYAISWVRQAPGQGLEWMGGIIPIFGTANYAQKFQGRVTITADKSTSTAYMELSSLRSEDTAVYYCAREGEGWFGKPLRAFEFWGQGTVITVSS
VL: not shown
notes: also called inferred germline PGZL1 Fab
**Q.** With B3 as the binder, how does the Kd (MPER peptide PDT-081 [1]) read?
**A.** Its Kd is 64.4 nM.

B4: PGZL1 gVgDgJ Fab (Fab, V domains shown)
VH: B3 VH with K106E, E112D, F113V
VL: not shown
**Q.** For B4, which Kd (MPER peptide PDT-081 [1]) is on record?
**A.** The Kd was 938 nM.

B5: PGZL1 gVgDgJ IgG (antibody, V domains shown)
VH: B3 VH with K106E, E112D, F113V
VL: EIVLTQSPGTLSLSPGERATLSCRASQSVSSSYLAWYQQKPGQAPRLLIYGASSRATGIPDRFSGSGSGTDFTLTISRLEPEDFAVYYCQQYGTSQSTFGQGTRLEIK
**Q.** How did the “fold increase in EC50” value (MPER peptide PDT-081 [2]) turn out when B5 was run?
**A.** Its value is 369 fold.

B6: PGZL1 gVgDmJ Fab (Fab, V domains shown)
VH: B3 VH with K106E
VL: not shown
**Q.** Which results are given for B6?
**A.** koff (MPER peptide PDT-081 [3]): 0.00197 s⁻¹; kon (MPER peptide PDT-081 [3]): 13300 M⁻¹ s⁻¹

B7: PGZL1 gVgDmJ Fab (Fab, V domains shown)
VH: B3 VH with K106E
VL: not shown
**Q.** With B7 as the binder, how does the Kd (MPER peptide PDT-081 [1]) read?
**A.** The Kd was 148 nM.

B8: PGZL1 gVmDmJ Fab (Fab, V domains shown)
VH: B3 VH
VL: not shown
**Q.** With B8 as the binder, how does the koff (MPER peptide PDT-081 [4]) read?
**A.** The koff was 0.000991 s⁻¹.

**Q.** And the kon (MPER peptide PDT-081 [4])?
**A.** The kon was 15400 M⁻¹ s⁻¹.

B9: PGZL1 gVgDgJ Fab (Fab, V domains shown)
VH: B3 VH with K106E, E112D, F113V
VL: not shown
**Q.** Which results are given for B9?
**A.** koff (MPER peptide PDT-081 [5]): 0.00802 s⁻¹; kon (MPER peptide PDT-081 [5]): 8550 M⁻¹ s⁻¹

B10: H4K3_SFS28EPE Fab (Fab, V domains shown)
VH: KVQLVQSGAELKKPWSSVRVSCKASGGEPESYAFNWVRQAPGQRLEWLGGIVPLVSSTNYAQRFRGRVTISADRSTSTVYLEMTGLTSADTAVYFCAREGEGWFGRPLRAFEFWGQGTLVTVST
VL: EIVLTQSPGTFALSPGERATLSCRASQSVSGGALAWYQQKAGQAPRLLIYDTSGRATGVPGRFSGSGSETDFSLTISRLEPEDFAVYYCQQYGTSQSTFGQGTRLETR
**Q.** What does the source list for B10?
**A.** Kd (MPER peptide PDT-081 [6]): 15.1 nM; koff (MPER peptide PDT-081 [6]): 0.000539 s⁻¹; kon (MPER peptide PDT-081 [6]): 35700 M⁻¹ s⁻¹

B11: H4K3_5M Fab (Fab, V domains shown)
VH: B10 VH with R74P, S75E
VL: B10 VL
**Q.** For B11, which Kd (MPER peptide PDT-081 [7]) is on record?
**A.** The Kd was 23.4 nM.

**Q.** What about the koff (MPER peptide PDT-081 [7]) of the same binder?
**A.** Its koff is 0.000674 s⁻¹.

**Q.** And the kon (MPER peptide PDT-081 [7])?
**A.** Its kon is 28800 M⁻¹ s⁻¹.

B12: H4K3_RS73PE Fab (Fab, V domains shown)
VH: B10 VH with E28S, P29F, E30S, R74P, S75E
VL: B10 VL
**Q.** Which results are given for B12?
**A.** Kd (MPER peptide PDT-081 [8]): 12.8 nM; koff (MPER peptide PDT-081 [8]): 0.000509 s⁻¹; kon (MPER peptide PDT-081 [8]): 39700 M⁻¹ s⁻¹
